The nanobody polyreactivity screen of Harvey et al. (2022)

Experiment: yeast display, Sf9 membrane polyspecificity reagent, FACS + sequencing; frameworks hold sequencing errors
In short: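 Using colony PCR, genes from sorted yeast display clones were amplified, then sequenced on MiSeq at 2 × 250 and filtered by CDR length. The clones had been stained with 10% biotinylated, detergent-solubilized Sf9 membrane reagent for 1 hour at 4 °C and sorted by FACS into low and high (top ~1%) gates on anti-HA and streptavidin fluorescence. Polyreactivity labels come from the gate of origin.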

| Sequence | polyreactivity (PSR sort gate) |
| --- | --- |
| QVQLVESGGGLVQAGGSLRLSCAASGFIFPVNGMGWYRQAPGKERELVAGITRTGTSTYYADSVKGRFTISRDNAKYTVYLQMNSLKPEDTAVYYCAADLYTGRTKYWEFESWGQGTQVTVSS | low polyreactivity |
| QVQLVESGGGLVQAGGSLRLSCAASGSTFYPYAMGWYRQAPGKEREFVAGISRSGGTTYYADSLKGRFTISRDNAKNTVYLQMNSLKPEDTAVYYCAVQIPYVYWSYDYWGQGTEVTVSS | low polyreactivity |
| QVQLQESGGGLVQAGGDLRLSCAASGNIFRDYIMGWYREAPGKEREFVAGIDRGANPNYADSVKGRFTISRDNAKNTVYLQMNSLKPEDTAVYYCAVHTAIVADFIYWGQGTQVTVSS | low polyreactivity |
| QVQLVESGGGLVQAGGSLRLSCAASGSTFGGYAMGWYRQAPGKERELVADIDSIGGSTYYADSVKGRFTISRDNAKNTVYLQMNSLKPEDTAVYYCAARRFDTALVLYDYWGQGTQVTVSS | low polyreactivity |
| QVQLVESGGGLVQAGGSLRLSCDASGSTFYLYKGWYRQAPGKERELVAAITSGGRTYYADSVKGRFTISRDNAKNSVYLQMNSLKPVVSAVYYCARPYSRAYDYWGEGTQVTVSS | high polyreactivity |
| QVQLVESGGALVQAGGSLRLSCAASGSTSVDYTMGWYRQAPGNDKDLVAAIDYNGDSTYYADSEKGRFTISRDNAKNTFYLQMNSLKPEDTAVYYCAADVWTLDPEVYDYWGPGTQVTVSS | low polyreactivity |
| QVQLVSGGGLVQAGGSLRLSCAASGRIFVSYAMGWYRQAPGKERELVADISSDGSTNYADSVKGRFTISRDNAKNTVYLQMNSLKPEDTAVYYCAVEVVRVYRYDYWGQGTQVTVSS | low polyreactivity |
| QVQLVESGGGLVQAGGSLRLSCAASGSTFQYNVMGWYRQAPGKERELVAAITNRDGSTYYADSVKGRFTISRDNAKNTVYLQMNSLKPEDTAVYYCAAPVWLWADRYDSWGQGTQVTVSS | low polyreactivity |
| QVQLVESGGGLVQAGGSLRLSCAASGRTFYYNTMGWYRQAPGKERELVATITSSGGRTYYADSVKGRFTISRDNAKNTVYLQMNSLKPEDTAVYYCNAALSRAFKHSTGYDYWGQGTQVTVSS | low polyreactivity |
| QVQLVESGGGLVQAGGSLRLSCAASGFTIYNNVMVWYRQAPGKERELVAAITSSGGRTYYADSVKGRFTISRDIAKNTVYLQMNSLKPEDTAVYYCNALYFRKGGYWGQGTQVTVSS | high polyreactivity |
| QVQLVESGGGLVQAGGSLRLSCAPSGIIFFAYAMGWYRQAPGKERELVAAISSSGGRTYYADSVKGRFTISRDNAKHTVYLQMNSLKPEETPVYYCNARWHGSFDYWGQGTQVTVSS | low polyreactivity |
| QVQLVESGGGLVQAGGSLRLSCAASGSIFSRYAMGWYRQAPGTERELVAAITSSGTSTYYADSVKGRFTISRDNAKNTVYLQMNSLKPEDTAVYYCAAAFRQRTSRYDYWGQGTQVTVSS | high polyreactivity |
| QVQLVESGGGLVQAGGSLRLSCAASGFTIYYYAMGWDRQAPGKERELVASITSGGSTYYADSVKGRFTISRDNAKNTVYLQMNSLKPEDTAVYYCAADYYSPSLRYDYWGQGTQVTVSS | low polyreactivity |
| QVQLVESGGGLVQAGGSLRLSCAASGSTFGYNAMGWYRQAPGKEREFVAAITRRGGNTYYADSVKGRFTISRDNAKNTVYLQMNSLKPEDTAVYYCAARYLQGRYDYWGQGTQVTVSS | high polyreactivity |
| QVQLVESGGGLVQTGGSLRLSCAASGSTFEYNAMGWYRQAPGKERELVAAITWTGGSRYYADSVKGRFTISRDNAKNSVYFQMNSLKPEDTAVYYCNAVSYVDIWDDRRYYYWGQGTQVTVSS | low polyreactivity |
| QVQLVESGGCLVQAGGSLRLSCAASGSTLYRYVMGWYRPAPGKESELVAAISWSGTNTYADSVKGRFTISRDNAKNTVYLQMNSLKPEDTAVYYSAAAGPGYNWGYRVYAIYDYWGQGSQVTVSS | high polyreactivity |
| QVQLVESGGGLVQAGGSLRLSCAASGLTFGSNTMGWYRQAPGKERELVAAITSNGGSTYYADSVKRRFTISRDYAKNTVYLQMNSLKPEDTAVYYCAARSYDGYYRYYYWGQGTQVTVSS | low polyreactivity |
| QVQLVESGGGLVQAGGSLRLSCSASGSIFGGYAMGWYRQAPGKEREFVAAISRRGASTYYADSVKGRYTISRDNAKNTVYLQMNSLKPEDTAVYYCNARAYGRIDGLSATYGYWGQGTQVTVSS | high polyreactivity |
| QVQLVESGGGLVQAGGSLRLSCAASGLIFTVNAMGWYRQAPGKERELVAAISQSGGSTYYADSVKGRFTISRDNAKNTVYLQMNSLKPEDTAVYYCARGSWRHFRLYGFDYWGQGTQLTVSS | low polyreactivity |
| QVQLVESGGGLVQAGGSLRLSCAASGSIFYLYAMGWYRQAPGKERELVAGITTSGGTTYYADSVKGRFTISRDNAKNTVYLQMNSLKPEDTAVYYCNAAVGYYSLPYDYWGQGTQVTVSS | low polyreactivity |
| QVQLVESGGGLVQAGGSLRLSCAASGYIFRYYVMGWYRQEPGKERELVAAITFSGGNTYYADSVKGRFTISRDNAKITVYLQMNSLKPEDTAVYYCAADVLYVGGSDYDYWVQGTQVTVSS | low polyreactivity |
| QVQLVESGGGIVQAGGSLRLSCAASGFISYRNAMGWDRMAPGKERELVASITSSGGRTYYADSVKGRFTISRDNAKNTVYLQMNSLKPEDTAVYDWAADNWYKKQKRPSAYDYWGQGTQVSVSS | high polyreactivity |

| Sequence | polyreactivity (PSR sort gate) |
| --- | --- |
| QVQLVESGGGLVQAGGSLRLSCAASGRIFYWNAMGWYRQAPGKERELVAVITKSGGSTYYADSVKGRFTISRDNAKNTVYLQMNSLKPEDTAVYYCAKSLYVQGYYIYDWGQGTQVTVSS | high polyreactivity |
| QVQLVESGGGLVQAGGSLRLSCAASGSTFSRNAMGWSRQAPGKERELVAAISRRGGTTNYADSVKGRFTISRDNAKNTVYLQMNSLKPEDTAVYYCNAQPGDYWGQGTQVTVSS | high polyreactivity |
| QVQLVESGGGLVQAGGSLRLSCAACGFTFRYNAMGWYRQAPGKERELVAAITRGGGNTYYADSVKGRFTISRDHAKNTVYLQMNSLKPEDTAVYYCAAYSNGGRYDYGYWGQGTQVTVSS | high polyreactivity |
| HVQLVESGGGLVQAGGSLRLSCAASGRTFVVNAMGWYRQAPGTEREFVAAISYRGDSTYYAVSVKGRFTFSRDNSKNTVYLQMNSLKPEDTAVYYCAARVLGPGRRYYYWGQGTQVTVSS | high polyreactivity |
| QVQHVESGGGLVQAGGSLRLSCAASGSIFNYYDMGWYRQAPGKEREFVARITIGGSSTNYADSVKGRFTISRDNAKNTVYLQMNSLTPEDTAVYYCAAAQYGIFFSQMDYWGQGTQVTVSS | low polyreactivity |
| QVQLVESGGGLVQAGGSLRLSCAASGRIYDYYTMGWYRQAPGKERELVAAITWIGGSTYYADSVKGRFTISRDNAKNTVYLQMNSLKPEDTAVYYWNAEGTALPYRADTVGGYYYWGQGTQVTVSS | low polyreactivity |
| QVQLVESGGGLVQAGGSLRLSCAASGFTITRNTMGWYRQAPGKERELVAAITRGGSTNYADSVKGRFTISRDNAKNSVYLQMNSLKPEDTAVYYCNKGRNVVLVRTADDYWGQGTQVTVSS | low polyreactivity |
| QVQLVESGGGLVQAGGSLRLSCAASGSIFYRYAMGWYSQAPGKERELVAAINNGGGRTYADSVKGRCTISRDNAKNTVYLQMNSLKPEDTAVYYCAARYYRDYRWYTYAYDYWGQGTQVNVSS | high polyreactivity |
| QVQLVESRGGLVQAGGSLRLSCPASGYIFYRNAMGWYRQEPGKERELVAAITYTGGRTYYPDSVKGRFTISRDNAKNTVYLQMNSLNPEDTAVYYCNADGRVFVVRPYYDYEYWGQGTQVTVSS | low polyreactivity |
| QVQLVESGGALVQAGGSLRISCAASGRIFDGYTMGWSRQAPGKERELVAAITSGGGSTYYADSVKGRFTISRDNAKNTVYLQMNSLKPEDTAVYYCAAYRRNTYWGQGTQVTVSS | high polyreactivity |
| QVQLVESGGGLVQAGGSLRLSCAASGSTFQWYAMGWNIQAPGKERELVAGITRTGSTYYADSVKGRFTISRDNAKNTVYLQMNSLKPEDTAVYYCAAKWHTASGKYYYWGQVTQVTVSS | high polyreactivity |
| QVQLVESGGGLVQAGGSLRLSCAASGSIFWSYAMGWYRQAPGKERELVAAITYSGTSTYYADSVKGRFTISRDNAKNTVYLQMNSLKPEDTAVSYCAASPYSRSRYDYWGQGTQVTVSS | low polyreactivity |
| QVQLVESGGGLVQAGGSLRLSCAASGITFFDNAMGWYRQAPGKERELVATITGGGASTYYADSVKGRFTISRDNAKNTVYLLMNSLKPEDTAVYYCAADYVDGVYLEYGYWGQGTQVTVSS | low polyreactivity |
| QVQLVESGGGLVQAGGNLLLSCAASGFNFVDYAMGWSRQAPGKERELVASIDRSDGSTYYADSVKGRFTFSRDNAKNTVYLLMNSLKPEDTAVYYCAAADQLYSISTGDYWGQGTQVTVSL | low polyreactivity |
| QVQLVESGGGLVQAGGSLRLSCAASGRTFPGYAMGWYRQAPGTEMEMVAAISSGGGTKYADSVKGRFTISRDNAKYTVYVQMNSLKPEDTAVFYCAARGGTYHWGRYYWRQYDYWGQGTQVTVSS | high polyreactivity |
| QVQLVESGGGLVQAGGSLRLSCAASGRIFYNAMGWYRQAPGKERELVAAITSNGGSTYYADSVKGRFTISRDNAKNTVYLQMNSLKPEDTAVYYCNAAIRYTASATHAFDYWGQGTQVTVSS | low polyreactivity |
| QVQLVESGGGLVQAGGSLRLSCAASGFTFWRNVMGWYRQAPGKERELVAAITRSGGSTYYADSVKGRFTISRDNAKNTVYLQMNSLKPEDTAVYYCNAVRHGGYDYLGQGTQVTVSS | high polyreactivity |
| QVQLVESGGGLVQAGGSLRLSCAASGSIFDLNVMGWYRQAPGKERELVAAITWSGGSTYYADSVKGRFTISRDNAKNTVYLQMNSLKPEDTAVDYCAADTASGDTLRPTLLYDYWGQGTQVTVSS | low polyreactivity |
| QVQLVESGGGLVQAGGSLRLSCAASGIISIFNVMGWYRQAPGKERELVASITGRGGSTFYADSVKGRFTISRDNAKNTDYLQLNSLIPEDTAVYYCATDTGYTYPVTGLYDYWGQGTQVTVSS | low polyreactivity |
| QVQLVESGGGLVQAGGSLRLSCAASGSIFFLYAMGWYRQAPGKERELVAAISRSGVSTYYADSVKGRFTISRDNAKNTVYLQMNSLKPEDTAVYYCNRRVPVTRSRYYYWGQGTQVTVSS | high polyreactivity |
| QVQLVESGGGLVQAGGSLRLSCAASGFIFRYYAMGWYRQAPGKERELVAAISWRGGTTYYADSVKGRFTFSRDNAKNTVYLQMNSLKPDDTAVYYCAADWQWDLGPYIYQVEYWGQGTQVTVSS | high polyreactivity |
